Test results taken from the supplement of paper PMC11908140.

B1: library; numbered along this chain (parent)
chain: MRKPRAAVGSGHRKQAASQEGRQKHAKNNSQAKPSACDGLARQPEEVVLQASVSSYHLFRDVAEVTAFRGSLLSWYDQEKRDLPWRRRAEDEMDLDRRAYAVWVSEVMLQQTQVATVINYYTGWMQKWPTLQDLASASLEEVNQLWAGLGYYSRGRRLQEGARKVVEELGGHMPRTAETLQQLLPGVGRYTAGAIASIAFGQATGVVDGNVARVLCRVRAIGADPSSTLVSQQLWGLAQQLVDPARPGDFNQAAMELGATVCTPQRPLCSQCPVESLCRARQRVEQEQLLASGSLSGSPDVEECAPNTGQCHLCLPPSEPWDQTLGVVNFPRKASRKPPREESSATCVLEQPGALGAQILLVQRPNSGLLAGLWEFPSVTWEPSEQLQRKALLQELQRWAGPLPATHLRHLGEVVHTFSHIKLTYQVYGLALEGQTPVTTVPPGARWLTQEEFHTAAVSTAMKKVFRVYQGQQPGTCMGSKRSQVSSPCSRKKPRMGQQVLDNFFRSHISTDAHSLNSAAQ

Variants of: B1
Experiment: 8OG:A repair function score (normalized; synonymous = 0, nonsense = -1) (normalized log-likelihood score); higher = more repair activity (WT-like)
Conditions: with 8OG:A DNA repair reporter (GFP) in HEK-293 MUTYH KO cells
Summary of the method: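 Lentiviral MUTYH cDNA NNN codon-scan libraries in HEK-293 MUTYH knockout cells (10 pg/ml doxycycline) were co-transfected with an 8OG:A GFP repair reporter plus mCherry. At 72 h, viable mCherry+ cells were sorted into GFP+ (repair) and GFP− bins, three replicates per tile, then tile amplicons were sequenced. Per-tile Rosace fitness scores became a normalized repair function score anchored on synonymous and nonsense distributions. Synonymous medians were set to 0 and nonsense to -1; variants under 300 counts per million at the start were removed.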

Going from MRKPRAAVGSGHRKQAASQEGRQKHAKNNSQAKPSACDGLARQPEEVVLQASVSSYHLFRDVAEVTAFRGSLLSWYDQEKRDLPWRRRAEDEMDLDRRAYAVWVSEVMLQQTQVATVINYYTGWMQKWPTLQDLASASLEEVNQLWAGLGYYSRGRRLQEGARKVVEELGGHMPRTAETLQQLLPGVGRYTAGAIASIAFGQATGVVDGNVARVLCRVRAIGADPSSTLVSQQLWGLAQQLVDPARPGDFNQAAMELGATVCTPWRPLCSQCPVESLCRARQRVEQEQLLASGSLSGSPDVEECAPNTGQCHLCLPPSEPWDQTLGVVNFPRKASRKPPREESSATCVLEQPGALGAQILLVQRPNSGLLAGLWEFPSVTWEPSEQLQRKALLQELQRWAGPLPATHLRHLGEVVHTFSHIKLTYQVYGLALEGQTPVTTVPPGARWLTQEEFHTAAVSTAMKKVFRVYQGQQPGTCMGSKRSQVSSPCSRKKPRMGQQVLDNFFRSHISTDAHSLNSAAQ [Q265W] to MRKPRAAVGSGHRKQAASQEGRQKHAKNNSQAKPSACDGLARQPEEVVLQASVSSYHLFRDVAEVTAFRGSLLSWYDQEKRDLPWRRRAEDEMDLDRRAYAVWVSEVMLQQTQVATVINYYTGWMQKWPTLQDLASASLEEVNQLWAGLGYYSRGRRLQEGARKVVEELGGHMPRTAETLQQLLPGVGRYTAGAIASIAFGQATGVVDGNVARVLCRVRAIGADPSSTLVSQQLWGLAQQLVDPARPGDFDQAAMELGATVCTPQRPLCSQCPVESLCRARQRVEQEQLLASGSLSGSPDVEECAPNTGQCHLCLPPSEPWDQTLGVVNFPRKASRKPPREESSATCVLEQPGALGAQILLVQRPNSGLLAGLWEFPSVTWEPSEQLQRKALLQELQRWAGPLPATHLRHLGEVVHTFSHIKLTYQVYGLALEGQTPVTTVPPGARWLTQEEFHTAAVSTAMKKVFRVYQGQQPGTCMGSKRSQVSSPCSRKKPRMGQQVLDNFFRSHISTDAHSLNSAAQ [N251D], the “8OG:A repair function score” value falls from -0.0937 to -0.947.

Going from MRKPRAAVGSGHRKQAASQEGRQKHAKNNSQAKPSACDGLARQPEEVVLQASVSSYHLFRDVAEVTAFRGSLLSWYDQEKRDLPWRRRAEDEMDLDRRAYAVWVSEVMLQQTQVATVINYYTGWMQKWPTLQDLASASLEEVNQLWAGLGYYSRGRRLQEGARKVVEELGGHMPRTAETLQQLLPGVGRYTAGAIASIAFGQATGVVDGNVARVLCRVRAIGADPSSTLVSQQLWGLAQQLVDPARPGDFNQAAMELGATVCTPQRPLCSQCPVESLCRARQRVEQEQLLASGSLSGSPDVEECAPNTGQCHLCLPPSEPWDQTLGVVNFPRKASRKPPREESSATKVLEQPGALGAQILLVQRPNSGLLAGLWEFPSVTWEPSEQLQRKALLQELQRWAGPLPATHLRHLGEVVHTFSHIKLTYQVYGLALEGQTPVTTVPPGARWLTQEEFHTAAVSTAMKKVFRVYQGQQPGTCMGSKRSQVSSPCSRKKPRMGQQVLDNFFRSHISTDAHSLNSAAQ [C347K] to MRKPRAAVGSGHRKQAASQEGRQKHAKNNSQAKPSACDGLARQPEEVVLQASVSSYHLFRDVAEVTAFRGSLLSWYDQEKRDLPWRRRAEDEMDLDRQAYAVWVSEVMLQQTQVATVINYYTGWMQKWPTLQDLASASLEEVNQLWAGLGYYSRGRRLQEGARKVVEELGGHMPRTAETLQQLLPGVGRYTAGAIASIAFGQATGVVDGNVARVLCRVRAIGADPSSTLVSQQLWGLAQQLVDPARPGDFNQAAMELGATVCTPQRPLCSQCPVESLCRARQRVEQEQLLASGSLSGSPDVEECAPNTGQCHLCLPPSEPWDQTLGVVNFPRKASRKPPREESSATCVLEQPGALGAQILLVQRPNSGLLAGLWEFPSVTWEPSEQLQRKALLQELQRWAGPLPATHLRHLGEVVHTFSHIKLTYQVYGLALEGQTPVTTVPPGARWLTQEEFHTAAVSTAMKKVFRVYQGQQPGTCMGSKRSQVSSPCSRKKPRMGQQVLDNFFRSHISTDAHSLNSAAQ [R98Q], the “8OG:A repair function score” value rises from -1.08 to -0.236.

Going from MRKPRAAVGSGHRKQAASQEGRQKHAKNNSQAKPSACDGLARQPEEVVLQASVSSYHLFRDVAEVTAFRGSLLSWYDQEKRDLPWRRRAEDEMDLDRRAYAVWVSEVMLQQTQVATVINYYTGWMQKWPTLQDLASASLEEVNQLWAGLGYYSRGRRLQEGARKVVEELGGHMPRTAETLQQLLPGVGRYTAGAIASIAFGQATGVVDGNVARVLCRVRAIGADPSSTLVSQQLWGLAQQLVDPARPGDFNMAAMELGATVCTPQRPLCSQCPVESLCRARQRVEQEQLLASGSLSGSPDVEECAPNTGQCHLCLPPSEPWDQTLGVVNFPRKASRKPPREESSATCVLEQPGALGAQILLVQRPNSGLLAGLWEFPSVTWEPSEQLQRKALLQELQRWAGPLPATHLRHLGEVVHTFSHIKLTYQVYGLALEGQTPVTTVPPGARWLTQEEFHTAAVSTAMKKVFRVYQGQQPGTCMGSKRSQVSSPCSRKKPRMGQQVLDNFFRSHISTDAHSLNSAAQ [Q252M] to MRKPRAAVGSGHRKQAASQEGRQKHAKNNSQAKPSACDGLARQPEEVVLQASVSSYHLFRDVAEVTAFRGSLLSWYDQEKRDLPWRRRAEDEMDLDRRAYAVWVSEVMLQQTQVATVINYYTGWMQKWPTLQDLASASLEEVNQLWRGLGYYSRGRRLQEGARKVVEELGGHMPRTAETLQQLLPGVGRYTAGAIASIAFGQATGVVDGNVARVLCRVRAIGADPSSTLVSQQLWGLAQQLVDPARPGDFNQAAMELGATVCTPQRPLCSQCPVESLCRARQRVEQEQLLASGSLSGSPDVEECAPNTGQCHLCLPPSEPWDQTLGVVNFPRKASRKPPREESSATCVLEQPGALGAQILLVQRPNSGLLAGLWEFPSVTWEPSEQLQRKALLQELQRWAGPLPATHLRHLGEVVHTFSHIKLTYQVYGLALEGQTPVTTVPPGARWLTQEEFHTAAVSTAMKKVFRVYQGQQPGTCMGSKRSQVSSPCSRKKPRMGQQVLDNFFRSHISTDAHSLNSAAQ [A147R], the “8OG:A repair function score” value rises from -0.854 to -0.11.

First: MRKPRAAVGSGHRKQAASQEGRQKHAKNNSQAKPSACDGLARQPEEVVLQASVSSYHLFRDVAEVTAFRGSLLSWYDQEKRDLPWRRRAEDEMMLDRRAYAVWVSEVMLQQTQVATVINYYTGWMQKWPTLQDLASASLEEVNQLWAGLGYYSRGRRLQEGARKVVEELGGHMPRTAETLQQLLPGVGRYTAGAIASIAFGQATGVVDGNVARVLCRVRAIGADPSSTLVSQQLWGLAQQLVDPARPGDFNQAAMELGATVCTPQRPLCSQCPVESLCRARQRVEQEQLLASGSLSGSPDVEECAPNTGQCHLCLPPSEPWDQTLGVVNFPRKASRKPPREESSATCVLEQPGALGAQILLVQRPNSGLLAGLWEFPSVTWEPSEQLQRKALLQELQRWAGPLPATHLRHLGEVVHTFSHIKLTYQVYGLALEGQTPVTTVPPGARWLTQEEFHTAAVSTAMKKVFRVYQGQQPGTCMGSKRSQVSSPCSRKKPRMGQQVLDNFFRSHISTDAHSLNSAAQ [D94M]
Second: MRKPRAAVGSGHRKQAASQEGRQKHAKNNSQAKPSACDGLARQPEEVVLQASVSSYHLFRDVAEVTAFRGSLLSWYDQEKRDLPWRRRAEDEMDLDRRAYAVWVSEVMLQQTQVATVINYYTGWMQKWPTLQDLASASLEEVNQLWAGLGYYSRGRRLQEGARKVVEELGGHMPRTAETLQQLLPGVGRYTAGAIASIAFGQATGVVDGNVARVLCRVRAIGADPSSTLVSQQLWGLAQQLVDPARPGDFNQAAMELGATVCTPQRPLCSQCPVESLCRARQRVEQEQLLASGSLSGSPDVVECAPNTGQCHLCLPPSEPWDQTLGVVNFPRKASRKPPREESSATCVLEQPGALGAQILLVQRPNSGLLAGLWEFPSVTWEPSEQLQRKALLQELQRWAGPLPATHLRHLGEVVHTFSHIKLTYQVYGLALEGQTPVTTVPPGARWLTQEEFHTAAVSTAMKKVFRVYQGQQPGTCMGSKRSQVSSPCSRKKPRMGQQVLDNFFRSHISTDAHSLNSAAQ [E302V]
The “8OG:A repair function score” value of the first is higher: -0.104 for the first, -0.232 for the second.

First: MRKPRAAVGSGHRKQAASQEGRQKHAKNNSQAKPSACDGLARQPEEVVLQASVSSYHLFRDVAEVTAFRGSLLSWYDQEKRDLPWRRRAEDEMDLDRRAYAVWVSEVMLQQTQVATVINYYTGWMQKWPTLQDLASASLEEVNQLWAGLGYYSRGRRLQEGARKVVEELGGHMPRTAETLQQLLPGVGRYTAGAIASIAFGQATGVVDGNVARVLCRVRAIGADPSSTLVSQQLWFLAQQLVDPARPGDFNQAAMELGATVCTPQRPLCSQCPVESLCRARQRVEQEQLLASGSLSGSPDVEECAPNTGQCHLCLPPSEPWDQTLGVVNFPRKASRKPPREESSATCVLEQPGALGAQILLVQRPNSGLLAGLWEFPSVTWEPSEQLQRKALLQELQRWAGPLPATHLRHLGEVVHTFSHIKLTYQVYGLALEGQTPVTTVPPGARWLTQEEFHTAAVSTAMKKVFRVYQGQQPGTCMGSKRSQVSSPCSRKKPRMGQQVLDNFFRSHISTDAHSLNSAAQ [G236F]
Second: MRKPRAAVGSGHRKQAASQEGRQKHAKNNSQAKPSACDGLARQPEEVVLQASVSSYHLFRDVAEVTAFRGSLLSWYDQEKRDLPWRRRAEDEMDLDRRAYAVWVSEVMLQQTQVATVINYYTGWMQKWPTLQDLASASLEEVNQLWAGLGYYSRGRRLQEGARKVVEELGGHMPRTAETLQQLLPGVGRYTAGAIASIAFGQATGVVDGNVARVLCRVRAIGADPSSTLVSQQLWGLAQQLVDPARPGDFNQAAMELGATVCTPQRPLCSQCPVESLCRARQRVEQEQLLASGSLSGSPDVEECAPNTGQCHLCLPPSEPWDQTLGVVNFPRKASRKPPREESSATCVLEQPGALGAQILLVQRPNSGLLAGLWEFPSVTWEPSEQLQRKALLQELQRWAGPLPATHLRHLGEVVHTFSHIKLTYQVYGLALEGQTPVTTVPPGARWLTQKEFHTAAVSTAMKKVFRVYQGQQPGTCMGSKRSQVSSPCSRKKPRMGQQVLDNFFRSHISTDAHSLNSAAQ [E451K]
The “8OG:A repair function score” value of the first is higher: 0.0301 for the first, -0.241 for the second.

Going from MRKPRAAVGSGHRKQAASQEGRQKHAKNNSQAKPSACDGLARQPEEVVLQASVSSYHLFRDVAEVTAFRGSLLSWYDQEKRDLPWRRRAEDEMDLDRRAYAVWVSEVMLQQTQVATVINYYTGWMQKWPTLQDLASASLEEVNQLWAGLGYYSRGRRLQEGARKVVEELGGHMPRTAETLQQLLPGVGRYTAGAIASIAFGQATGVVDGNVARVLCRVRAIGADPSSTLVSQQLWGLAQQLVDPARPGDFNQAAMELGATVCTPQRPLCSQCPVESLCRARQRVEAEQLLASGSLSGSPDVEECAPNTGQCHLCLPPSEPWDQTLGVVNFPRKASRKPPREESSATCVLEQPGALGAQILLVQRPNSGLLAGLWEFPSVTWEPSEQLQRKALLQELQRWAGPLPATHLRHLGEVVHTFSHIKLTYQVYGLALEGQTPVTTVPPGARWLTQEEFHTAAVSTAMKKVFRVYQGQQPGTCMGSKRSQVSSPCSRKKPRMGQQVLDNFFRSHISTDAHSLNSAAQ [Q286A] to MRKPRAAVGSGHRKQAASQEGRQKHAKNNSQAKPSACDGLARQPEEVVLQASVSSYHLFRDVAEVTAFRGSLLSWYDQEKRDLPWRRRAEDEMDLDRRAYAVWVSEVMLQQTQVATVINYYTGWMQKWPTLQDLASASLEEVNQLWAGLGYYSRGRRLQEGARKVVEELGGHMPRTAETLQQLLPGVGRYTAGAIASIAFGQATGVVDGNVARVLCRVRAIGADPSSTLVSQQLWGLAQQLVDPARPGDFNQAAMELGATVCTPQRPLCSQCPVESLNRARQRVEQEQLLASGSLSGSPDVEECAPNTGQCHLCLPPSEPWDQTLGVVNFPRKASRKPPREESSATCVLEQPGALGAQILLVQRPNSGLLAGLWEFPSVTWEPSEQLQRKALLQELQRWAGPLPATHLRHLGEVVHTFSHIKLTYQVYGLALEGQTPVTTVPPGARWLTQEEFHTAAVSTAMKKVFRVYQGQQPGTCMGSKRSQVSSPCSRKKPRMGQQVLDNFFRSHISTDAHSLNSAAQ [C278N], the “8OG:A repair function score” value falls from -0.00891 to -1.1.
